The nanobody polyreactivity screen of Harvey et al. (2022)

Test: yeast display, Sf9 membrane polyspecificity reagent, FACS + sequencing; frameworks hold sequencing errors
Outline: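 A synthetic nanobody library was expressed on Saccharomyces cerevisiae BJ5465 by galactose induction for 36–48 hours. The library was stained for 1 hour at 4 °C with 10% biotinylated, detergent-solubilized Sf9 membrane reagent and enriched with streptavidin microbeads before FACS. Low and high (top ~1%) gates were set on anti-HA fluorescence for expression and streptavidin fluorescence for reagent binding, and each polyreactivity label reflects the gate of origin.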

Sequence	polyreactivity (PSR sort gate)
QVQLVESGGGLVQAGGSLRLSCAASGRIWGYAMGLYRQAPGKARELVATITYNSGRTYYADSVKGRFTISRDNAKNTVYLQMNSLKPEDTAVYYCNKDFDGRFDYWGQGTQVNVSS	high polyreactivity
QVQLVESGGGLVQAGGSLRLSCAASGTIFYIYAMGWYRQAPGKERELVAAITWRGGRTYYADSVKGRFTISRDNAKNTVYLQMNSLKPEDTAVYYCAALYANYYYRYEYWGQGTQVTVSS	high polyreactivity
QVQLVESVGGLDQAGGSLPVSCAASGLTFTGYTMGWYRQAPWKERELVATISGSGGNTDYADSVKARFTISRDKAKNTVDLQMNSLKPEDTAVYYCASRRSGPLVLYYYWGQGTQVTVSS	low polyreactivity
QVQLVESGGGLVQAGGSLRLSCAASGYTFVYNGMGWYRQAPGKERELVAAITWGGAGTYYADSVKGRFTISRDNAKNTVYLQMISLKPEDTSVYYCAPPSPRSRAYTYRGDYWGQGTQVTVSS	low polyreactivity
QVQLVESGGGLVQAGGSLRLSCAASGRIFRVYAMGWYRQAPGKERELVAAIRWTGGSTYYADSVKGRFKISRDNAKNTVYLQMNSLKPEDTAVYYCAAGRYYSDGSRTIYDYWGQGTQVTVSS	low polyreactivity
QVQLVESGGGLVQAGGSLRLSCAASGSIFWGYAMGWYRQAPGKERELVAVISRGGSTYYADSVKGRFTISRDNAKNTVYLQMNSLKPEDTAVYYCADSSSWFYSPEYDYWGQGTQVTVSS	low polyreactivity
QVQLVESGGGLVQAGGSLRLSCAASGIIFRSYTMGWYRQAPGKERELVASITRSGGITYYADSVKGRFTISRDNAKNTVYLQMNSLKPEDTAVYYCSARHRYYSYSGYDYWGQGTQVTVSS	high polyreactivity
QVQLVESGGGLVQAGGSLRLSCAASGSTFIHNAMGWYRQAPGKERELVAAITSGGSTYYADSVKGRFTISRDNAKNTVYLQMTSLKPEDTAVYYCNAGRGTRFVYIDGMDYWGQGTQVTVSS	high polyreactivity
QVQLEESGGGLVQAGGSLRISCAASVRTFKYYAMGWNRQAPGKETELVAAISWSGSSTSYADSVKGRFTISRDHAKNTVYLQMNSLKPEDTAVYYCAAATYRQFTGTYDYWGQGTQVTVSS	high polyreactivity
QVQLVESGGGLVQAGGRLRLSCAASGSTFYQYAMGWYRQAPGKERELVAAISKSGGSTYYADSVKGRFTISRDNAKNTVYLQMNSLKPEDTAVYYCATRWIKGRKMVYWGQGTQVTVSS	high polyreactivity
QVQLVDSGGGLVQAGCSLRISCAASGSIYTTYAMGWYRQAPGKERELVAALTRSGGRTYYADSVKGRFTISRDNAKYTVYLQMTSLKPEDTAVDDCNAYGYRTWWDDFKLDYWGQGTQVTVSS	high polyreactivity
QVQLVESGGGLVQAGGSLRLSCAASGLIIGVYAMGWYRQAPGKERELVAAITDGGSTYYADSVKGRFTISRDNAKNTVYLQMNSLKPEDTAVYYCNKLYTRVGFTFEYWGQGTQVTVSS	low polyreactivity
QVQLVESGGGLVQAGGSLRLSCAASGSIFRYYAMGWYRQAPGKERELVAAISWDGGTTYYADSVKGRFTISRDNAKNTVYLQMNSLKPEDPAVYYCNVEFPLSSYGYDYWGQGTQVTVSS	low polyreactivity
QVQLVESGGGLVQAGGSLRLSCAASGSTFKYYTMGWYRQAPGKERELVAAITSGGSTNYADSVKGRFTISRDNAKNTVYLQMNSLNPEDTAVYYCAAGGRRFYVGVIYDYWGQGNQVTVSS	high polyreactivity
QVQLVESGGGLVQAGGSLRLSCAASGSIFAGYAMGWYRQAPGNERELVAAISNRGSSTNYADSVKGRFTISRDNAKITVYLQMNSLKPEDTAVYYCAVGPIRKYDYWGQGTQVTVSS	high polyreactivity
QVQLVESGGGLVQAGGSLRLSCAASGIILYYYVMVWYRQEPGKEREFVAAINRSGTSTYYADSVKGRFTISRDNAKNTVYLQMNSLKPADTAVYYCAAERYWSGGVFDYDYWGQGTQVTVSS	high polyreactivity

Sequence	polyreactivity (PSR sort gate)
QVQLVESGGGLVQAGGSLRLSCAASGSTFYTNTMGWYRQAPGKERELVADINGSGGSTYYADSVKGRFTISRDNAKNTVYLQMNSLKPEDTAVYYCAAGSWQVAIRYDYWGQGTQVTVSS	low polyreactivity
QVQLVESGGGLVQAGGSLRLSCAASGSTFVAYAMGWYRQAPGKERELVAAISSVGRTNYADSVKGRFTISRDNAKYTVYLQMNSLKPEDTAVYYCAAVYVDRRKRSYYWGQGTQVTVSS	high polyreactivity
QVQLQESGGGLVQAGGSLRLSCAASGSIFADVQMGWYRQAPGKELELVASINFRGTTTYYADSVKGRFTISRDNAKNTVYLQMSSLKPEDNAVYYCAVGRSEGGDFAYWGQGTHVTVSS	low polyreactivity
QVQLVESGGGLVQAGGSLRLSCAASGRIFYFYAMGWYRQAPGKEREMVASISYSGGNTYYADSVKGRFTISRDNAKNTVYLQMNSLKPEDTAVYYCNVLPNTGARGYYYWGQGTQVTVSS	low polyreactivity
QVQLVESGGGLVQAGGSLRLSCAASGITFPINTMGWYRQAPGKERELVAGIDWTGGSTYYADSVKGRFTISRDNAKIPVYLLMNSLKPEHTAVYYCAKTRRRLLTRYDYWGQGTQVTVSS	low polyreactivity
QVQLVESGGGLVQAGGSLRLSCAASGRIFRVYTMGWYIQAPGKERELVAAISRGGTTTYADSVKGRFTISRDNAKNTVYLQMNSLKPEYTAVYYCNARGWFRGEFDYWGQGTQVTVSS	high polyreactivity
QVQLVESGGGLVQAGGSLRLSCAASGSTFHGYTIGWSRQAPGKERELVAAISSRGTSTYYADSVKGRFTISRDNAMNTVYLQMNSLKTEDTAVYYCATRGWDKYWGQGTQVTVSS	high polyreactivity
QVQHVESGGGLVQAGGSLRLSCAASGTTFVLYAMGWYIQAPGKERELVAAITWSGGITYYADSVKGRFTISRDNAKNTVYLQMNSLKPEDTAVYYCNAEQKQYEKSYDYWGQGSQVTVSS	low polyreactivity
QVQIVESGGGLVQAGGSLRLSCAASGSIFVNNAMGWYRQAPGKVRELVARISFSGGSTYYADSVKGRFTISRDNAKNTVYLQMISLNPEDTAVYYCAKTVLRTESGWWIKFDYWGQVTQVTVSS	low polyreactivity
QVQLVESGGGLVQAGGSLRLSCAASGSTFYSYAMGWSRQAPGKERELVARISGSGGSTYYADSVKGRFTISRDTAKNTVYLQMNSLKPEDPAVYYCAADDIYKYYQYYAFPYYRYDYWGQGTQVTVSS	low polyreactivity
QVQLVESGGGLVQAGGSLRFSCAASGHIFFYYTMGWYRQAPGKERELVAGITQSGGNTYYADSVKGRFTISRDNAKNTVYLQMNSLKPEDTAVYYCAARIRGTWKYGYWGQGTQVTVSS	low polyreactivity
QVQLVESGGGLVQAGGSLRLSCAASGSTFTEYAMGWYRQAPGKERELVAGISSDGSTKYADSVKGRFTISRDNAKNTVYLQMNSLKPEDTAVYYCNKDQSYAKYDYWGQGTQVTVSS	low polyreactivity
QVQLVESGGGLVQAGGSLRLSCAASGLTFVANAMGWYRQAPGKERELVAAIDYGGGHTYYADSVKGRFTNSRDNAKNTVYLQMNSLKPEDTAVYYCAVGLPHGGRRLYGSWYRFDYWGQGTQVTVSS	low polyreactivity
QVQLVESGGGLVQAGGILRISCAASGFIFWKNAMGWYRQAPGKERELVAAISRGGSTYYADSVKGRFTISRDNAKKTVYLQMNSLKPEDTAFYYCNKVGGATDKYLYYYWGQATQVTVSS	high polyreactivity
QVQLVESGGGLVQAGGSLRLSCAASGFIFQYFAMGWYRQAPGKERELVAGITSGVRPYYADSLKGRFTISRDNAKNTVYLQMNSLKPEDTAVYYCARLDSAAEPRQYDYWGQGTQVTVSS	high polyreactivity
QVQLVESGGGLVQAGGSLRLSCAASGSIFYFYDMGWYRQAPGKERELVAAISLDDGGTYYADSVKGRFTISRDNAKNTVYLQMNSLKPEDTAVYYCAADYYYWYQIYDYWGQGTQVTVSS	high polyreactivity
